The assay deals with Hsp90α in MCF-7 cells (Thr90 phosphorylated, intracellular) (human). Put plainly: cell-based or functional assay.

For the substance “human PP5 in MCF-7 cells (overexpressed from pcDNA3.1/Myc-His(-), or the endogenous protein knocked down by siRNA) (enzyme)”, the Thr90 phosphorylated Hsp90α level in MCF-7 cells on overexpression of human PP5 (of the control) amounted to 0.55 and the Thr90 phosphorylated Hsp90α level in MCF-7 cells on siRNA knock-down of human PP5 (of the control) worked out at 1.58.

For the origin of these results see patent EP2452948B1.
